Results as given in patent US12295987B2, “Method of using a GIP/GLP1 co-agonist for diabetes” (Eli Lilly and Company, priority 2018, dated 2025).
Numbered stars: 1 amine (or outer) side, 2 acyl side, 3 side chain; on linkers, the order of the positions; unused ones are H or OH. Square brackets hold non-standard residues; d marks the D form. Side chains are listed from the residue outwards. Ends that are not written are not given here. * marks the point of attachment. C20 diacid = O=C(O)CCCCCCCCCCCCCCCCCCC(=O)*; γGlu = O=C(O)[C@H](CCC(=O)[*:2])N[*:1]; AEEA = NCCOCCOCC(=O)O; Aib = CC(C)(N)C(=O)O

Target: T1, human gastric inhibitory peptide receptor (hGIPR) (Homo sapiens, UniProt P48546)
T1 construct: expressed in transfected cells; host or cells: HEK293
T1 sequence (P48546 22-466): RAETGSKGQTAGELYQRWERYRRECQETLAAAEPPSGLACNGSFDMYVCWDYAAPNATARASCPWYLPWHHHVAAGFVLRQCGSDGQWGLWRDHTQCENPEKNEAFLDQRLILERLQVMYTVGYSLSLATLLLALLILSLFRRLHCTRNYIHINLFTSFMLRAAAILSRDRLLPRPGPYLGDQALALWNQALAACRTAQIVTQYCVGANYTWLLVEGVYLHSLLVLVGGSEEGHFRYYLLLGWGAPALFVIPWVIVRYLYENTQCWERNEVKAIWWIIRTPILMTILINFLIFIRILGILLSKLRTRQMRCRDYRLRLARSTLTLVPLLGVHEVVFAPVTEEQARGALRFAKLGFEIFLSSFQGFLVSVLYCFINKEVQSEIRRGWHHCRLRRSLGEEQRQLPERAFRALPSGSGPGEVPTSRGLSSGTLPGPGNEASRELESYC
Experiment: cAMP pharmacological functional assay in presence of 0.1% casein, hGIPR
Assay type: cell-based
Conditions: ratio of hGIPR to hGLP1R cAMP EC50 ratios

| Substance | [hGIPR/hGLP1R] EC50 Ratio |
| --- | --- |
| Y-Aib-EGTFTSDYSIK((2-[2-(2-Amino-ethoxy)-ethoxy]-acetyl)2-(γGlu)-CO—(CH2)18—CO2H)LDKIAQ-Aib-AFIEYLIEGGPSSGAPPPS-NH2 (Y[Aib]EGTFTSDYSIK([AEEA-AEEA-γGlu-C20 diacid])LDKIAQ[Aib]AFIEYLIEGGPSSGAPPPS-NH2; N-terminus assumed; SMILES CC[C@H](C)[C@H](NC(=O)[C@H](CCCCN)NC(=O)[C@H](CC(=O)O)NC(=O)[C@H](CC(C)C)NC(=O)[C@H](CCCCNC(=O)COCCOCCNC(=O)COCCOCCNC(=O)CC[C@H](NC(=O)CCCCCCCCCCCCCCCCCCC(=O)O)C(=O)O)NC(=O)[C@@H](NC(=O)[C@H](CO)NC(=O)[C@H](Cc1ccc(O)cc1)NC(=O)[C@H](CC(=O)O)NC(=O)[C@H](CO)NC(=O)[C@@H](NC(=O)[C@H](Cc1ccccc1)NC(=O)[C@@H](NC(=O)CNC(=O)[C@H](CCC(=O)O)NC(=O)C(C)(C)NC(=O)[C@@H](N)Cc1ccc(O)cc1)[C@@H](C)O)[C@@H](C)O)[C@@H](C)CC)C(=O)N[C@@H](C)C(=O)N[C@@H](CCC(N)=O)C(=O)NC(C)(C)C(=O)N[C@@H](C)C(=O)N[C@@H](Cc1ccccc1)C(=O)N[C@H](C(=O)N[C@@H](CCC(=O)O)C(=O)N[C@@H](Cc1ccc(O)cc1)C(=O)N[C@@H](CC(C)C)C(=O)N[C@H](C(=O)N[C@@H](CCC(=O)O)C(=O)NCC(=O)NCC(=O)N1CCC[C@H]1C(=O)N[C@@H](CO)C(=O)N[C@@H](CO)C(=O)NCC(=O)N[C@@H](C)C(=O)N1CCC[C@H]1C(=O)N1CCC[C@H]1C(=O)N1CCC[C@H]1C(=O)N[C@@H](CO)C(N)=O)[C@@H](C)CC)[C@@H](C)CC) [Peptide 26] | 2.46 |
| Y-Aib-EGTFTSDYSILLDK((2-[2-(2-Amino-ethoxy)-ethoxy]-acetyl)2-(γGlu)-CO—(CH2)18—CO2H)IAQ-Aib-AFIEYLIEGGPSSGAPPPS-NH2 (Y[Aib]EGTFTSDYSILLDK([AEEA-AEEA-γGlu-C20 diacid])IAQ[Aib]AFIEYLIEGGPSSGAPPPS-NH2; N-terminus assumed; SMILES CC[C@H](C)[C@H](NC(=O)[C@H](CCCCNC(=O)COCCOCCNC(=O)COCCOCCNC(=O)CC[C@H](NC(=O)CCCCCCCCCCCCCCCCCCC(=O)O)C(=O)O)NC(=O)[C@H](CC(=O)O)NC(=O)[C@H](CC(C)C)NC(=O)[C@H](CC(C)C)NC(=O)[C@@H](NC(=O)[C@H](CO)NC(=O)[C@H](Cc1ccc(O)cc1)NC(=O)[C@H](CC(=O)O)NC(=O)[C@H](CO)NC(=O)[C@@H](NC(=O)[C@H](Cc1ccccc1)NC(=O)[C@@H](NC(=O)CNC(=O)[C@H](CCC(=O)O)NC(=O)C(C)(C)NC(=O)[C@@H](N)Cc1ccc(O)cc1)[C@@H](C)O)[C@@H](C)O)[C@@H](C)CC)C(=O)N[C@@H](C)C(=O)N[C@@H](CCC(N)=O)C(=O)NC(C)(C)C(=O)N[C@@H](C)C(=O)N[C@@H](Cc1ccccc1)C(=O)N[C@H](C(=O)N[C@@H](CCC(=O)O)C(=O)N[C@@H](Cc1ccc(O)cc1)C(=O)N[C@@H](CC(C)C)C(=O)N[C@H](C(=O)N[C@@H](CCC(=O)O)C(=O)NCC(=O)NCC(=O)N1CCC[C@H]1C(=O)N[C@@H](CO)C(=O)N[C@@H](CO)C(=O)NCC(=O)N[C@@H](C)C(=O)N1CCC[C@H]1C(=O)N1CCC[C@H]1C(=O)N1CCC[C@H]1C(=O)N[C@@H](CO)C(N)=O)[C@@H](C)CC)[C@@H](C)CC) [Peptide 29] | 7.99 |
| Y-Aib-EGTFTSDYSILLDKIAK((2-[2-(2-Amino-ethoxy)-ethoxy]-acetyl)2-(γGlu)-CO—(CH2)18—CO2H)-Aib-AFIEYLIEGGPSSGAPPPS-NH2 (Y[Aib]EGTFTSDYSILLDKIAK([AEEA-AEEA-γGlu-C20 diacid])[Aib]AFIEYLIEGGPSSGAPPPS-NH2; N-terminus assumed; SMILES CC[C@H](C)[C@H](NC(=O)[C@H](CCCCN)NC(=O)[C@H](CC(=O)O)NC(=O)[C@H](CC(C)C)NC(=O)[C@H](CC(C)C)NC(=O)[C@@H](NC(=O)[C@H](CO)NC(=O)[C@H](Cc1ccc(O)cc1)NC(=O)[C@H](CC(=O)O)NC(=O)[C@H](CO)NC(=O)[C@@H](NC(=O)[C@H](Cc1ccccc1)NC(=O)[C@@H](NC(=O)CNC(=O)[C@H](CCC(=O)O)NC(=O)C(C)(C)NC(=O)[C@@H](N)Cc1ccc(O)cc1)[C@@H](C)O)[C@@H](C)O)[C@@H](C)CC)C(=O)N[C@@H](C)C(=O)N[C@@H](CCCCNC(=O)COCCOCCNC(=O)COCCOCCNC(=O)CC[C@H](NC(=O)CCCCCCCCCCCCCCCCCCC(=O)O)C(=O)O)C(=O)NC(C)(C)C(=O)N[C@@H](C)C(=O)N[C@@H](Cc1ccccc1)C(=O)N[C@H](C(=O)N[C@@H](CCC(=O)O)C(=O)N[C@@H](Cc1ccc(O)cc1)C(=O)N[C@@H](CC(C)C)C(=O)N[C@H](C(=O)N[C@@H](CCC(=O)O)C(=O)NCC(=O)NCC(=O)N1CCC[C@H]1C(=O)N[C@@H](CO)C(=O)N[C@@H](CO)C(=O)NCC(=O)N[C@@H](C)C(=O)N1CCC[C@H]1C(=O)N1CCC[C@H]1C(=O)N1CCC[C@H]1C(=O)N[C@@H](CO)C(N)=O)[C@@H](C)CC)[C@@H](C)CC) [Peptide 31] | 6.44 |
| Y-Aib-EGTFTSDYSILLDKIAQ-Aib-AFIEYLIEGGPK((2-[2-(2-Amino-ethoxy)-ethoxy]-acetyl)2-(γGlu)-CO—(CH2)18—CO2H)SGAPPPS-NH2 (Y[Aib]EGTFTSDYSILLDKIAQ[Aib]AFIEYLIEGGPK([AEEA-AEEA-γGlu-C20 diacid])SGAPPPS-NH2; N-terminus assumed; SMILES CC[C@H](C)[C@H](NC(=O)[C@H](CCCCN)NC(=O)[C@H](CC(=O)O)NC(=O)[C@H](CC(C)C)NC(=O)[C@H](CC(C)C)NC(=O)[C@@H](NC(=O)[C@H](CO)NC(=O)[C@H](Cc1ccc(O)cc1)NC(=O)[C@H](CC(=O)O)NC(=O)[C@H](CO)NC(=O)[C@@H](NC(=O)[C@H](Cc1ccccc1)NC(=O)[C@@H](NC(=O)CNC(=O)[C@H](CCC(=O)O)NC(=O)C(C)(C)NC(=O)[C@@H](N)Cc1ccc(O)cc1)[C@@H](C)O)[C@@H](C)O)[C@@H](C)CC)C(=O)N[C@@H](C)C(=O)N[C@@H](CCC(N)=O)C(=O)NC(C)(C)C(=O)N[C@@H](C)C(=O)N[C@@H](Cc1ccccc1)C(=O)N[C@H](C(=O)N[C@@H](CCC(=O)O)C(=O)N[C@@H](Cc1ccc(O)cc1)C(=O)N[C@@H](CC(C)C)C(=O)N[C@H](C(=O)N[C@@H](CCC(=O)O)C(=O)NCC(=O)NCC(=O)N1CCC[C@H]1C(=O)N[C@@H](CCCCNC(=O)COCCOCCNC(=O)COCCOCCNC(=O)CC[C@H](NC(=O)CCCCCCCCCCCCCCCCCCC(=O)O)C(=O)O)C(=O)N[C@@H](CO)C(=O)NCC(=O)N[C@@H](C)C(=O)N1CCC[C@H]1C(=O)N1CCC[C@H]1C(=O)N1CCC[C@H]1C(=O)N[C@@H](CO)C(N)=O)[C@@H](C)CC)[C@@H](C)CC) [Peptide 41] | 10.00 |
| Y-Aib-EGTFTSDYSILLDKIAQ-Aib-AFIEYLIEGGPSSGAPK((2-[2-(2-Amino-ethoxy)-ethoxy]-acetyl)2-(γGlu)-CO—(CH2)18—CO2H)PS-NH2 (Y[Aib]EGTFTSDYSILLDKIAQ[Aib]AFIEYLIEGGPSSGAPK([AEEA-AEEA-γGlu-C20 diacid])PS-NH2; N-terminus assumed; SMILES CC[C@H](C)[C@H](NC(=O)[C@H](CCCCN)NC(=O)[C@H](CC(=O)O)NC(=O)[C@H](CC(C)C)NC(=O)[C@H](CC(C)C)NC(=O)[C@@H](NC(=O)[C@H](CO)NC(=O)[C@H](Cc1ccc(O)cc1)NC(=O)[C@H](CC(=O)O)NC(=O)[C@H](CO)NC(=O)[C@@H](NC(=O)[C@H](Cc1ccccc1)NC(=O)[C@@H](NC(=O)CNC(=O)[C@H](CCC(=O)O)NC(=O)C(C)(C)NC(=O)[C@@H](N)Cc1ccc(O)cc1)[C@@H](C)O)[C@@H](C)O)[C@@H](C)CC)C(=O)N[C@@H](C)C(=O)N[C@@H](CCC(N)=O)C(=O)NC(C)(C)C(=O)N[C@@H](C)C(=O)N[C@@H](Cc1ccccc1)C(=O)N[C@H](C(=O)N[C@@H](CCC(=O)O)C(=O)N[C@@H](Cc1ccc(O)cc1)C(=O)N[C@@H](CC(C)C)C(=O)N[C@H](C(=O)N[C@@H](CCC(=O)O)C(=O)NCC(=O)NCC(=O)N1CCC[C@H]1C(=O)N[C@@H](CO)C(=O)N[C@@H](CO)C(=O)NCC(=O)N[C@@H](C)C(=O)N1CCC[C@H]1C(=O)N[C@@H](CCCCNC(=O)COCCOCCNC(=O)COCCOCCNC(=O)CC[C@H](NC(=O)CCCCCCCCCCCCCCCCCCC(=O)O)C(=O)O)C(=O)N1CCC[C@H]1C(=O)N[C@@H](CO)C(N)=O)[C@@H](C)CC)[C@@H](C)CC) [Peptide 46] | 8.54 |
| Y-Aib-EGTFTSDYSILLDKIAQ-Aib-AFIEYLIEGGPSSGAPPK((2-[2-(2-Amino-ethoxy)-ethoxy]-acetyl)2-(γGlu)-CO—(CH2)18—CO2H)S-NH2 (Y[Aib]EGTFTSDYSILLDKIAQ[Aib]AFIEYLIEGGPSSGAPPK([AEEA-AEEA-γGlu-C20 diacid])S-NH2; N-terminus assumed; SMILES CC[C@H](C)[C@H](NC(=O)[C@H](CCCCN)NC(=O)[C@H](CC(=O)O)NC(=O)[C@H](CC(C)C)NC(=O)[C@H](CC(C)C)NC(=O)[C@@H](NC(=O)[C@H](CO)NC(=O)[C@H](Cc1ccc(O)cc1)NC(=O)[C@H](CC(=O)O)NC(=O)[C@H](CO)NC(=O)[C@@H](NC(=O)[C@H](Cc1ccccc1)NC(=O)[C@@H](NC(=O)CNC(=O)[C@H](CCC(=O)O)NC(=O)C(C)(C)NC(=O)[C@@H](N)Cc1ccc(O)cc1)[C@@H](C)O)[C@@H](C)O)[C@@H](C)CC)C(=O)N[C@@H](C)C(=O)N[C@@H](CCC(N)=O)C(=O)NC(C)(C)C(=O)N[C@@H](C)C(=O)N[C@@H](Cc1ccccc1)C(=O)N[C@H](C(=O)N[C@@H](CCC(=O)O)C(=O)N[C@@H](Cc1ccc(O)cc1)C(=O)N[C@@H](CC(C)C)C(=O)N[C@H](C(=O)N[C@@H](CCC(=O)O)C(=O)NCC(=O)NCC(=O)N1CCC[C@H]1C(=O)N[C@@H](CO)C(=O)N[C@@H](CO)C(=O)NCC(=O)N[C@@H](C)C(=O)N1CCC[C@H]1C(=O)N1CCC[C@H]1C(=O)N[C@@H](CCCCNC(=O)COCCOCCNC(=O)COCCOCCNC(=O)CC[C@H](NC(=O)CCCCCCCCCCCCCCCCCCC(=O)O)C(=O)O)C(=O)N[C@@H](CO)C(N)=O)[C@@H](C)CC)[C@@H](C)CC) [Peptide 47] | 7.35 |
